We go through one molecule from doi:10.1101/2022.03.14.484294 (bioRxiv, 2022).

This test addresses Recombinant human Rac1 (Q2-L177), His-tagged (human, UniProt P63000 2-177). Description: AlphaScreen or HTRF.

B1: Truncated recombinant human Tiam1 (R1033-E1406), FLAG-tagged (domain or fragment)
chain: RQLSDADKLRKVICELLETERTYVKDLNCLMERYLKPLQKETFLTQDELDVLFGNLTEMVEFQVEFLKTLEDGVRLVPDLEKLEKVDQFKKVLFSLGGSFLYYADRFKLYSAFCASHTKVPKVLVKAKTDTAFKAFLDAQNPKQQHSSTLESYLIKPIQRILKYPLLLRELFALTDAESEEHYHLDVAIKTMNKVASHINEMQKIHEEFGAVFDQLIAEQTGEKKEVADLSMGDLLLHTTVIWLNPPASLGKWKKEPELAAFVFKTAVVLVYKDGSKQKKKLVGSHRLSIYEDWDPFRFRHMIPTEALQVRALASADAEANAVCEIVHVKSESEGRPERVFHLCCSSPESRKDFLKAVHSILRDKHRRQLLKTE
As to B1, the binding result is listed as “binds”.
